Consider three molecules from patent publication US20170088602A1 (Bristol-Myers Squibb, published 2017).

First the molecules themselves.
B1: ActRIIb-Fc (R&D Systems) (Fc fusion, human, UniProt Q13705 19-134, looked up, not shown: a dimerising Fc or GST)
chain: SGRGEAETRECIYYNANWELERTNQSGLERCEGEQDKRLHCYASWRNSSGTIELVKKGCWLDDFNCYDRQECVATEENPQVYFCCCEGNFCNERFTHLPEAGGPEVTYEPPPTAPT
modifications: Alexa Fluor 647 label in the HTRF assay
notes: also called rhActRIIb-Fc; Human Activin RIIB Fc Chimera
B2: 3116_A06 R56A (designed binder)
chain: MGVSDVPRDLEVVAATPTSLLISWSLPHQGKANYYRITYGETGGNSPVQEFTVPGAGVTATISGLKPGVDYTITVYAVTVTDTGYLKYKPISINYRTEIDKPSQHHHHHH
B3: human BMP-11 (GDF-11; R&D Systems) (ligand, UniProt O95390 299-407, looked up)
chain: NLGLDCDEHSSESRCCRYPLTVDFEAFGWDWIIAPKRYKANYCSGQCEYMFMQKYPHTHLVQQANPRGSAGPCCTPTKMSPINMLYFNDKQQIIYGKIPGMVVDRCGCS

The target in assay [1] is T1, human Activin A (R&D Systems) (human, UniProt P08476 311-426).
T1 sequence (looked up): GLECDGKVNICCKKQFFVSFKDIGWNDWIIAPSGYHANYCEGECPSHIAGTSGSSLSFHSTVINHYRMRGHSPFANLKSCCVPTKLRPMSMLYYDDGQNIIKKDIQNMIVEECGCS
The assay is described as follows: SPR format A set-up. From the text: (§1) Anti-human Fc antibody (Biacore/GE) was immobilized on a Biacore CM5 chip via NHS/EDC coupling according to the manufacturer's instructions. […] A concentration range of anti-myostatin Adnectin was applied across all flow cells in HBSP running buffer. Regeneration of the chip surface between cycles was accomplished with two 30 second pulses of 3M MgCl₂. Kinetic traces of reference-subtracted sensorgrams were fit to a 1:1 binding model using Biaevaluation software.

The target of assay [2] is T2, human myostatin (mature, recombinant; R&D Systems) (human, UniProt O14793 267-375).
T2 construct: biotinylated in the mRNA display selection; also called GDF-8; mature myostatin
T2 sequence: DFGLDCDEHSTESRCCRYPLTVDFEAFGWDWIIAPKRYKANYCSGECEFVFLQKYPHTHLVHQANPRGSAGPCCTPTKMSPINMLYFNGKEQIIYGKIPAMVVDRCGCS
Briefly: competitive ELISA: 10 nM myostatin preincubated with soluble ActRIIb-Fc, then binding to plate-coated ActRIIb-Fc detected with biotinylated anti-myostatin polyclonal; % competition. The method, then: Competitive ELISA: Competitive binding assays to evaluate the ability of anti-myostatin Adnectins to compete with the ActRIIB receptor binding to myostatin were carried out using competitive ELISA. Nunc Maxisorp plates were coated with 2 μg/mL ActRIIb-Fc (R&D Systems) in 0.2M sodium carbonate pH 9.6 buffer overnight at 4° C. After washing with PBS-T (PBS containing 0.05% Tween-20), wells were blocked with OptEIA buffer (BD Biosciences) for 1 h at 25° C. with shaking. Myostatin (10 nM; R&D Systems) was preincubated with a concentration range of Adnectin or ActRIIb-Fc competitor (0.2 pM to 1 μM) in OptEIA buffer for 1 h at 25° C. with shaking. The blocked and coated assay plate was washed with PBS-T, and then myostatin/competitor mixtures were added and incubated for 30 min at 25° C. with shaking. The assay plate was washed with PBS-T, after which bound myostatin was detected with 1:1000 biotinylated goat anti-myostatin polyclonal (R&D Systems) diluted in OptEIA, for 1 h at 25° C. with shaking. After washing with PBS-T, 1:5000 Streptavidin-HRP (Thermo/Pierce) diluted in OptEIA was added, followed by incubation for 30 min at 25° C. with shaking. The assay plate was developed with TMB (BD Biosciences), quenched with 2N sulfuric acid, and absorbance read at A450.
A general note: An ELISA detects its analyte on a solid surface through an enzyme-linked reagent.

The target in assay [3] is T2, human myostatin (mature, recombinant; …). Briefly: cell-based or functional assay.
Assay [4] has the same target. Briefly: competitive HTRF, alanine scan.
The target is the same in assay [5]. Briefly: HTRF competition binding assay, alanine mutant. In general terms: Time-resolved FRET reads energy transfer from a long-lived donor to a nearby acceptor.
The target of assay [6] is B1. The assay is described as follows: SPR format A set-up.
Source text: as §1

In the case of B1, the binding result in assay [1] is given as “binds”. Moreover, the “IC50 (read off the curve)” value in assay [2] was roughly 1 nM.
For B2, the “Myostatin ARE-luc IC50” value in assay [3] was greater than 100 nM. Also, the IC50 in assay [4] was 55 nM; in assay [5], greater than 100 nM.
With B3, in assay [6], the binding result was “binds”.

What is called IC50 is the concentration at which inhibition is half-maximal.
